Changes are numbered by the printed parent chain.

Assay [1] deals with SARS-CoV-1 Receptor Binding Domain (RBD) protein (SARS-CoV-1, UniProt P59594 306-527). Put plainly: SPR, scFv captured via anti-V5, RBD as analyte. For orientation: SPR reads the build-up and loss of mass on a sensor chip optically.
In assay [2] the target is MERS Receptor Binding Domain (RBD) protein (MERS coronavirus, UniProt K9N5Q8 367-606). Put plainly: SPR, scFv captured via anti-V5, RBD as analyte.

B1: COVID19_P07_A12 (scFv, V domains shown)
VH: EVQLVESGGGLVQPGGSLRLSCAASGFTFSNYAMHWVRQAPGKGLEWVSAIGAGGGTYYADSVKGRFTISRDNSKNTLYLQMNSLRAEDTAVYYCVTNMDNSRDYFPHYFHDMDVWGQGTLVTVSS
VL: DIVMTQSPLSLPVTPGEPASISCRSSQSLLYSDGDTYLDWYLQKPGQSPQLLIYLGSNRASGVPDRFSGSGSGTDFTLKISRVEAEDVGVYYCMQALQTPLTFGGGTKVEIKR
As to B1, the binding result in assay [1] and in assay [2] was “no binding (tested: up to 300 nM)” throughout.

B2: COVID19_P07_B08 (scFv, V domains shown)
VH: EVQLVESGGGLVQPGGSLRLSCAASGFTFDDYAMHWVRQAPGKGLEWVSVISGSGRNTYYADSVKGRFTISRDNSKNTLYLQMNSLRAEDTAVYYCVTNMDNSRDYFPHYFHDMDVWGQGTLVTVSS
VL: not shown
As to B2, the binding result in assay [1] and in assay [2] was “no binding (tested: up to 300 nM)” throughout.

B3: COVID19_P08_C02 (scFv, V domains shown)
VH: B2 VH with D30S, D31S, V50G, I51V, G53A, R56G, N57G, T58P
VL: not shown
Take B3: the binding result in assay [1] and in assay [2] was “no binding (tested: up to 300 nM)” in each case.

B4: COVID19_P07_H03 (scFv, V domains shown)
VH: B2 VH with D30S, D31S, V50A, G53R, R56D, N57S, T58A
VL: not shown
As for B4, the binding result in assay [1] and in assay [2] was “no binding (tested: up to 300 nM)” each time.

B5: COVID19_P07_D10 (scFv, V domains shown)
VH: B2 VH with V50A, I51V, G53T, S54T, R56G, N57S
VL: not shown
Take B5: the binding result in assay [1] and in assay [2] was “no binding (tested: up to 300 nM)” throughout.

B6: COVID19_P07_F05 (scFv, V domains shown)
VH: B2 VH with D30S, D31N, V50G, G53S, S54G, R56S, N57G, Y59H
VL: not shown
Take B6: the binding result in assay [1] and in assay [2] was “no binding (tested: up to 300 nM)” throughout.

B7: COVID19_P07_E10 (scFv, V domains shown)
VH: B2 VH with D30S, D31S, A33G, S49A, G53Y, S54D, R56S, T58K
VL: B1 VL with Y31H, D33N, D35Y, T36N, Y37D, L55G, R59G
Turning to B7, the binding result in assay [1] and in assay [2] was “no binding (tested: up to 300 nM)” in each case.

B8: COVID19_P20_F05 (scFv, V domains shown)
VH: B2 VH with D30S, D31T, V50G, I51V, G53W, S54N, R56S, N57R, Y59H
VL: not shown
For B8, the binding result in assay [1] and in assay [2] was “no binding (tested: up to 300 nM)” each time.

B9: COVID19_P20_B01 (scFv, V domains shown)
VH: B2 VH with D30S, D31S, S49A, G53S, T58K, Y59F
VL: not shown
Take B9: the binding result in assay [1] and in assay [2] was “no binding (tested: up to 300 nM)” in each case.

B10: COVID19_P20_F04 (scFv, V domains shown)
VH: B2 VH with T28A, D30S, D31S, M34L, V50A, R56G, N57D
VL: B1 VL with Y31H, S32R, D33N, D35Y, T36N, L38V, K79R, L97R
On to B10, for which the binding result in assay [1] and in assay [2] was “no binding (tested: up to 300 nM)” in each case.

B11: COVID19_P07_D05 (scFv, V domains shown)
VH: B2 VH with D30R, D31S, S49A, G53H, S54D, G55A, R56S, T58K
VL: not shown
With B11, the binding result in assay [1] and in assay [2] was “no binding (tested: up to 300 nM)” throughout.

B12: COVID19_P07_G08 (scFv, V domains shown)
VH: B2 VH with D30S, D31S, V50A, R56G, N57S
VL: not shown
For B12, the binding result in assay [1] and in assay [2] was “no binding (tested: up to 300 nM)” throughout.

B13: COVID19_P19_D02 (scFv, V domains shown)
VH: B2 VH with D30S, D31S, A33G, S49A, V50A, R56G, N57S, Y59H
VL: not shown
Turning to B13, the binding result in assay [1] and in assay [2] was “no binding (tested: up to 300 nM)” each time.

B14: COVID19_P08_D11 (scFv, V domains shown)
VH: B2 VH with T28K, D30N, D31T, V50A, G53I, S54T, R56G
VL: not shown
On to B14, for which the binding result in assay [1] and in assay [2] was “no binding (tested: up to 300 nM)” throughout.

B15: COVID19_P08_F08 (scFv, V domains shown)
VH: B2 VH with D30T, D31S, A33G, V50A, R56G, N57T
VL: not shown
Take B15: the binding result in assay [1] and in assay [2] was “no binding (tested: up to 300 nM)” throughout.

B16: COVID19_P08_A10 (scFv, V domains shown)
VH: B2 VH with T28I, D30N, A33G, V50A, R56G
VL: not shown
On to B16, for which the binding result in assay [1] and in assay [2] was “no binding (tested: up to 300 nM)” in each case.

B17: COVID19_P07_E03 (scFv, V domains shown)
VH: B2 VH with T28I, D30S, D31S, Y32F, A33G, V50A, G53D, R56D, N57A, Y59Q
VL: not shown
Regarding B17, the binding result in assay [1] and in assay [2] was “no binding (tested: up to 300 nM)” each time.

B18: COVID19_P07_H06 (scFv, V domains shown)
VH: EVQLVESGGGLVQPGGSLRLSCAASGFTFSSYGMHWIRQAPGKGLEWVSAVSASGDRTHYADSVKGRFTISRDNSKNTLYLQMNSLRAEDTAVYYCVTNLDNSRDYFPHYFHDMDVWGQGTLVTVSS
VL: not shown
For B18, the binding result in assay [1] and in assay [2] was “no binding (tested: up to 300 nM)” in each case.

B19: COVID19_P08_B05 (scFv, V domains shown)
VH: B2 VH with D30S, D31S, A33G, V50A, R56G, N57T
VL: not shown
In the case of B19, the binding result in assay [1] and in assay [2] was “no binding (tested: up to 300 nM)” throughout.

B20: COVID19_P07_H05 (scFv, V domains shown)
VH: B2 VH with D30S, D31S, A33G, V37I, S52T, S54D, T58K, Y59F
VL: not shown
On to B20, for which the binding result in assay [1] and in assay [2] was “no binding (tested: up to 300 nM)” in each case.

B21: COVID19_P19_H03 (scFv, V domains shown)
VH: B2 VH with D30S, D31S, A33G, S49A, G53Y, S54D, R56S, T58K
VL: not shown
In the case of B21, the binding result in assay [1] and in assay [2] was “no binding (tested: up to 300 nM)” in each case.
